For one test, the target named is CD3ε (UniProt P07766 23-207, SPR construct not described; extracellular domain taken by convention from the UniProt topology. In cell assays CD3ε is full mature chain in the TCR/CD3 complex). Kind of test: SPR; Listed KD-values were obtained by surface plasmon resonance; format, CD3ε construct and conditions not told. (Surface plasmon resonance follows binding to a sensor surface in real time, without labels.)

In test [1] the target is HLA-A*0201/NY-ESO1(157-165)(9V) complex, refolded and biotinylated (human, p9C to valine (9V) (stands in the printed letters), biotin on the Avi tag). Kind of test: SPR; ProteOn; the methods tell an inverse set-up (MRGS-6His tagged DARPin captured by an immobilised RGS-His antibody on a GLC chip) and also HLA-A*0201/peptide targets on a neutravidin chip at different dilutions; HEPES buffer. As to conditions: both partners purified.

Kd, koff and kon data for 4 molecules are collected here from paper PMC12664392 (iScience, 2025).

Substitutions are numbered along the chain they refer to.

CD3ε, sequence (P07766 23-207): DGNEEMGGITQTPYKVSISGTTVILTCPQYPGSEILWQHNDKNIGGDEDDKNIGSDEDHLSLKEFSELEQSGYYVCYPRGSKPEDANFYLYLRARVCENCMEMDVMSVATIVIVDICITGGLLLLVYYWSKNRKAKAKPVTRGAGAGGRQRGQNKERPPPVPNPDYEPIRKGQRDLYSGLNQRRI

B1: CD3ε-specific DARPin version 1 (designed binder)
chain: DLGQKLLEAAWAGQDDEVRELLKAGADVNAKNSRGWTPLHTAAQTGHLEIFEVLLKAGADVNAKDDKGVTPLHLAAALGHLEIVEVLLKAGADVNAQDSWGTTPADLAAKYGHEDIAEVLQKAA
notes: four repeats (N-cap/ IR1/ IR2/ C-cap) joined in the printed order; also called CD3-v1; variant-1 (v1)
In the case of B1, in the test with CD3ε, the Kd (in general, a measure of binding affinity in units of concentration) came to 35 ± 21 nM.

B2: CD3ε-specific DARPin version 3 (designed binder)
chain: B1 chain with D15L, E20I, D65T, D66N, G68R, Q97R, S99T, E114R
notes: four repeats (N-cap/ IR1/ IR2/ C-cap) joined in the printed order; also called CD3-v3; CD3v3
Regarding B2, the Kd with CD3ε is 6 nM.

B3: CD3ε-specific DARPin version 2 (designed binder)
chain: B1 chain with D65N, G68R, Q97R, E114Q
notes: four repeats (N-cap/ IR1/ IR2/ C-cap) joined in the printed order; also called CD3-v2; CD3v2
As to B3, the Kd with CD3ε came to 14 ± 3 nM.

B4: NY_1xCD3 (bispecific DARPin T cell engager: HLA-A*0201/NY-ESO1(157-165)-specific DARPin NY_1 linked to a CD3ε-specific DARPin) (designed binder)
chain: DLGKKLLQAARAGQLDEVRELLKAGADVNAKDLIGVTPLHLAAFSGHLEIVEVLLKASADVNAKDVSGRTPLHVAAKHGHLEIVEVLLKAGADVNAKDLIGFTPLHLAAQFGHLEIVEVLLKAGADVNAQDKSGKTPADLAARAGHQDIAEVLQKAAGSPTPTPTTPTPTPTTPTPTPTGSDLGQKLLEAAWAGQDDEVRELLKAGADVNAKNSRGWTPLHTAAQTGHLEIFEVLLKAGADVNAKNDKRVTPLHLAAALGHLEIVEVLLKAGADVNARDSWGTTPADLAAKYGHQDIAEVLQKAA
Take B4: in test [1], the equilibrium dissociation constant (Kd) stood at 1.23 nM; the off-rate constant (koff) (in general, the rate constant with which the complex falls apart) amounted to 0.00113 s⁻¹; the association rate constant (kon) (usually a measure of how fast the partners come together) is 925000 M⁻¹ s⁻¹.
